Legend:
SEC-MALS = molecular target: the molecule itself; assay: SEC-MALS
Protocol: After overnight incubation in PBS at 4° C., the complexes were injected into the SEC-MALS system, which consists of a Superdex 200 Increase 10/300 GI column on an ÄKTA micro system (GE Healthcare Life Sciences), followed by a miniDAWN Treos and Optilab T-rEX (Wyatt Technology Corporation). […] Size exclusion chromatography data was evaluated using Unicorn (Version 5.20 General Electric Company), and the MALS data was evaluated using ASTRA (Version 7.0.0.69 Wyatt Technology).

[1] = molecular target: T1, human NPR1 on HEK293/hNPR1.myc.DDK cells (0 hANP) (human, UniProt P16066 33-1061); assay: cell-based or functional assay
T1 sequence: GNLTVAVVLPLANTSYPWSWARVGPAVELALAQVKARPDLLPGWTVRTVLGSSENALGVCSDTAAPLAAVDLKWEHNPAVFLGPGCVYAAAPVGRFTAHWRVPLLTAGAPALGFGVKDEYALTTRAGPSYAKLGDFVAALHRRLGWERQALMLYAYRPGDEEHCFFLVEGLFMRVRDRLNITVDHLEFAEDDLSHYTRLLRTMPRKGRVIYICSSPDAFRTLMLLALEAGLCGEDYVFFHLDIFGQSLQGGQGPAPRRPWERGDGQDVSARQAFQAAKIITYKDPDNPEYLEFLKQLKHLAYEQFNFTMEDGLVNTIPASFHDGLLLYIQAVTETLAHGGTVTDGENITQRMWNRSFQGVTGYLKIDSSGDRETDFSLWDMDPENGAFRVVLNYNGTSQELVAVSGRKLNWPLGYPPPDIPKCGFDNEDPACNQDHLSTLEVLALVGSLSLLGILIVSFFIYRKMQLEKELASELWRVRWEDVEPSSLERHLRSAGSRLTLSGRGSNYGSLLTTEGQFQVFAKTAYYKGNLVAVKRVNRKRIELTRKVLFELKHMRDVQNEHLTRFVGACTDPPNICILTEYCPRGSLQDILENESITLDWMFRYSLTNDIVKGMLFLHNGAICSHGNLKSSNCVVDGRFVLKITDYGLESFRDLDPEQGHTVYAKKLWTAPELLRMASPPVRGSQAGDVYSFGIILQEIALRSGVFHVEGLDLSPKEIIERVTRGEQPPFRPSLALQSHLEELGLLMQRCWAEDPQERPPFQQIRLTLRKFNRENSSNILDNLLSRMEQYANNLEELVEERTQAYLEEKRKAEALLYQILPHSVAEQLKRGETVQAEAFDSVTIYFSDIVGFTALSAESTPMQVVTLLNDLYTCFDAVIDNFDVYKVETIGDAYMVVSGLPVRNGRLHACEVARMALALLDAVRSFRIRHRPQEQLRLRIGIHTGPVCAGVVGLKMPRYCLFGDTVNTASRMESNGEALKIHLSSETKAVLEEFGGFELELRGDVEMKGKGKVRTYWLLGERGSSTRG

[2] = molecular target: T1, human NPR1 on HEK293/hNPR1.myc.DDK …; assay: ECL cell binding (MSD), 0 hANP
[3] = molecular target: T2, human NPR1 on HEK293/hNPR1.myc.DDK cells with 10 nM hANP (NPR1-ANP complex) (human, UniProt P01160 124-151); assay: ECL cell binding (MSD), +10 nM hANP
T2 construct: also called NPR1-ANP Complex on the Cell Surface
T2 sequence: T1 sequence
T2 sequence (peptide): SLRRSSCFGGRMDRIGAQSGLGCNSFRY

mfNPR1-mFc:hBNP complex = molecular target: T3, mfNPR1-mFc:hBNP complex (monkey; human, UniProt P16860 103-134); assay: SPR Biacore, mAb captured by anti-human Fc, 37C
T3 construct: Receptor-Fc pre-complexed with 10-fold hBNP
How it was run: (§1)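 Equilibrium dissociation constants come from surface plasmon resonance, with the NPR1 reagent flowed over captured antibody. The capture layer was anti-human Fc (monoclonal or goat polyclonal), amine-coupled onto a CM5 chip. Buffer was HEPES-buffered saline with EDTA and 0.05% Tween-20, pH 7.4.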

mNPR1-mFc [4] = molecular target: T4, mNPR1-mFc (mouse); assay: SPR Biacore, mAb captured by anti-human Fc, 37C
T4 construct: also called mouse NPR1 extracellular domain expressed with a C-terminal mouse IgG2a
T4 chain: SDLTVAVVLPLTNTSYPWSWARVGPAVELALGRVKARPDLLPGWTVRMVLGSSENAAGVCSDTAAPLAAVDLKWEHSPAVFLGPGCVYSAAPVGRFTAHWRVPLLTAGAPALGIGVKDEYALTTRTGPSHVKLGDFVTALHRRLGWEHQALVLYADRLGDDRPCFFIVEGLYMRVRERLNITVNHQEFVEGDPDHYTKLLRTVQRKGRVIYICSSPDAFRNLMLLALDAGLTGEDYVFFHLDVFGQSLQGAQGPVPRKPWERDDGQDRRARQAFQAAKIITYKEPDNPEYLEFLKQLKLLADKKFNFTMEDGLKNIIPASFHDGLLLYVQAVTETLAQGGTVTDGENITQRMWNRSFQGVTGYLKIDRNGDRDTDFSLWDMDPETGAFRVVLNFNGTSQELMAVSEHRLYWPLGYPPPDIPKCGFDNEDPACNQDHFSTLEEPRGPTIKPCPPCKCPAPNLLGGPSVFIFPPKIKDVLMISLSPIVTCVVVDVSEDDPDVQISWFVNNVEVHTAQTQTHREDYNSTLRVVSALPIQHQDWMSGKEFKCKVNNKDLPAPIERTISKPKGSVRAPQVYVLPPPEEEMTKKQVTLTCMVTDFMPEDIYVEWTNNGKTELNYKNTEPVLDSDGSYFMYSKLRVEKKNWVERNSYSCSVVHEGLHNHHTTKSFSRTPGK
How it was run: as §1

mNPR1-mFc [5] = molecular target: T4, mNPR1-mFc; assay: SPR Biacore, mAb captured by anti-human Fc, 25C
How it was run: as §1

[6] = molecular target: T1, human NPR1 on HEK293/hNPR1.myc.DDK …; assay: ECL cell binding (MSD), HEK293/hNPR1.myc.DDK cells, 0 hANP
Protocol: Experiments were carried out according to the following procedure. Cells from lines described above were rinsed once in 1×PBS buffer without Ca²⁺/Mg²⁺ nd incubated for 10 minutes at 37° C. with Enzyme Free Cell Dissociation Solution to detach cells from a flask. All cells were washed once with 1×PBS with Ca²⁺/Mg²⁺ and counted with a Cellometer™ Auto T4 cell counter (Nexcelom Bioscience). Approximately 2.0×10⁴ HEK293/hNPR1.myc.DDK or HEK293 cells were seeded separately onto 96-well carbon electrode plates (MULTI-ARRAY high bind plate, Meso Scale Discovery (MSD, Rockville, MD)) and incubated for 1 hour (h) at 37° C. Nonspecific binding sites were blocked by 2% BSA (w/v) in 1×PBS with Ca²⁺/Mg²⁺for 1 h at room temperature (RT). HEK293/hNPR1.myc. […] The plate-bound antibodies were detected with SULFO-TAG™-conjugated goat polyclonal anti-human IgG antibody specific for heavy and light chains (Jackson Immunoresearch, West Grove, PA) for 1 h, RT.
After washes, plates were developed with Read Buffer (MSD, Rockville, MD) according to manufacturer's recommended procedure and luminescent signals were recorded with a SECTOR Imager 600 (MSD, Rockville, MD). Luminescence intensity, measured in relative light units (RLU), was recorded to indicate the binding intensity of each antibody at the range of concentrations.

B1: human NPR1 extracellular domain expressed with a C-terminal myc-myc-hexahistidine (hNPR1-MMH) (receptor)
chain: GNLTVAVVLPLANTSYPWSWARVGPAVELALAQVKARPDLLPGWTVRTVLGSSENALGVCSDTAAPLAAVDLKWEHNPAVFLGPGCVYAAAPVGRFTAHWRVPLLTAGAPALGFGVKDEYALTTRAGPSYAKLGDFVAALHRRLGWERQALMLYAYRPGDEEHCFFLVEGLFMRVRDRLNITVDHLEFAEDDLSHYTRLLRTMPRKGRVIYICSSPDAFRTLMLLALEAGLCGEDYVFFHLDIFGQSLQGGQGPAPRRPWERGDGQDVSARQAFQAAKIITYKDPDNPEYLEFLKQLKHLAYEQFNFTMEDGLVNTIPASFHDGLLLYIQAVTETLAHGGTVTDGENITQRMWNRSFQGVTGYLKIDSSGDRETDFSLWDMDPENGAFRVVLNYNGTSQELVAVSGRKLNWPLGYPPPDIPKCGFDNEDPACNQDHLSTLEEQKLISEEDLGGEQKLISEEDLHHHHHH
notes: also called hNPR.mmh; monomeric human NPR1
binding result (SEC-MALS): binds

B2: mAb22805 (antibody, human IgG4, V domains shown)
VH: QVQLVESGGGVVQPGRSLRLSCAASGFTFSTYGMHWVRQAPGKGLEWVALIWNDGSNKYYADSVKGRFTISRDNSKNTLDLQMNSLRAEDTAVYYCARLNTRITGTTNLDYWGQGTLVTVSS
VL: DIQMTQSPSSLSASVGDRVTVSCRASQSIANYLNWYQQKPGKAPNLLIYGAYTLQSGVPSRFRGSGSGTDFTLTISSLQPEDFATYYCQQTYSTPPITFGQGTRLEIK
% Activation (vs ANP max), Expt 1 [1]: 91.6% | % Activation (vs. ANP max), Expt II [1]: 119% | EC50 (nM), calcium flux, Expt 1 [1]: 239 nM | EC50 (nM), calcium flux, Expt II [1]: 112 nM | Ratio at 3.7 nM Ab concentration of Cell Binding Signal (RLU) to HEK293/hNPR1.myc.DKK relative to parental HEK293 [2]: 1 ratio | EC50 [3]: 0.65 nM | Ratio at 3.7 nM Ab concentration of Cell Binding Signal (RLU) to HEK293/hNPR1.myc.DKK relative to parental HEK293 [3]: 222 ratio | 100 nM Ag Bound (RU) (mfNPR1-mFc:hBNP complex): 150 RU | Kd (mfNPR1-mFc:hBNP complex): 3.39 nM | koff (mfNPR1-mFc:hBNP complex): 0.000202 s⁻¹ | kon (mfNPR1-mFc:hBNP complex): 59600 M⁻¹ s⁻¹ | t½ (mfNPR1-mFc:hBNP complex): 57.2 min | 100 nM Ag Bound (RU) (mNPR1-mFc [4]): 0 RU | binding result (mNPR1-mFc [4]): no binding (tested: 100 nM) | 100 nM Ag Bound (RU) (mNPR1-mFc [5]): 0 RU | binding result [6]: no binding (tested: ratio below 3 at 3.7 nM Ab)

B3: mAb22810 (antibody, human IgG4, V domains shown)
VH: EVQLVESGGGLVKPGGSLRLSCVVSGFTFRIYTMNWVRQAPGKGLEWVASISSSSSFINYADSLKGRFTISRDNAQNSLYLQMNSLRAEDTAIYYCARAAGNDVLPGRMDVWGQGTSVTVSS
VL: EIVLTQSPGTLSLSPGERATLSCRASQSVSSNYLAWYQQKPGQVPSLLIYGASSRATGIPDRFSGSGSGTDFTLTITRLEPEDFAVYYCQQYGISPWTFGQGTKVEIK
% Activation (vs. ANP max), Expt II [1]: 126% | EC50 (nM), calcium flux, Expt II [1]: 50.8 nM | Ratio at 3.7 nM Ab concentration of Cell Binding Signal (RLU) to HEK293/hNPR1.myc.DKK relative to parental HEK293 [2]: 1 ratio | EC50 [3]: 3.7 nM | Ratio at 3.7 nM Ab concentration of Cell Binding Signal (RLU) to HEK293/hNPR1.myc.DKK relative to parental HEK293 [3]: 24 ratio | binding result [6]: no binding (tested: ratio below 3 at 3.7 nM Ab)

B4: mAb22809 (antibody, human IgG4, V domains shown)
VH: QLQLRESGPGLVKPSETLSLTCTVSGGSINDNSFFWDWIRQTPGRGLEWIGNIFFDGNTYYTPSLKSRVIISVDMSQNQFSLRLTSVTAADTALYYCARHKRSMTAWGFFDYWGQGTLVTVSS
VL: DIQMTQSPSSLSASVGDRVTITCRASKRINTYLNWYQQKPGKAPKVLIYSASNLQSGVPSRFSGSGSGTDFTLTINSLQPEDFATYFCQQSFSAPPITFGQGTRLEIK
% Activation (vs ANP max), Expt 1 [1]: 86.7% | EC50 (nM), calcium flux, Expt 1 [1]: 270 nM | Ratio at 3.7 nM Ab concentration of Cell Binding Signal (RLU) to HEK293/hNPR1.myc.DKK relative to parental HEK293 [2]: 2 ratio | EC50 [3]: 0.48 nM | Ratio at 3.7 nM Ab concentration of Cell Binding Signal (RLU) to HEK293/hNPR1.myc.DKK relative to parental HEK293 [3]: 166 ratio | 100 nM Ag Bound (RU) (mfNPR1-mFc:hBNP complex): 99 RU | Kd (mfNPR1-mFc:hBNP complex): 4.29 nM | koff (mfNPR1-mFc:hBNP complex): 0.000229 s⁻¹ | kon (mfNPR1-mFc:hBNP complex): 53400 M⁻¹ s⁻¹ | t½ (mfNPR1-mFc:hBNP complex): 50.5 min | 100 nM Ag Bound (RU) (mNPR1-mFc [4]): 0 RU | binding result (mNPR1-mFc [4]): no binding (tested: 100 nM) | 100 nM Ag Bound (RU) (mNPR1-mFc [5]): 0 RU | binding result [6]: no binding (tested: ratio below 3 at 3.7 nM Ab)

B5: mAb25545 (antibody, human IgG4, V domains shown)
VH: QVQLVESGGGLVKPGGSLRLSCAASGFTFSDYHLSWIRQAPGKGLEWVSYIRSSGRTIDYAASVKGRFTISRDNAKNSLYLQMNSLRVEDTAVYYCARENWIVLKVYAGIVGAPLDQWGQGTLVTVSS
VL: not shown
% Activation (vs ANP max), Expt 1 [1]: 123% | % Activation (vs. ANP max), Expt II [1]: 123% | EC50 (nM), calcium flux, Expt 1 [1]: 188 nM | EC50 (nM), calcium flux, Expt II [1]: 74.1 nM | Ratio at 3.7 nM Ab concentration of Cell Binding Signal (RLU) to HEK293/hNPR1.myc.DKK relative to parental HEK293 [2]: 1 ratio | EC50 [3]: 1.9 nM | Ratio at 3.7 nM Ab concentration of Cell Binding Signal (RLU) to HEK293/hNPR1.myc.DKK relative to parental HEK293 [3]: 79 ratio | 100 nM Ag Bound (RU) (mfNPR1-mFc:hBNP complex): 82 RU | Kd (mfNPR1-mFc:hBNP complex): 2.09 nM | koff (mfNPR1-mFc:hBNP complex): 7.77e-05 s⁻¹ | kon (mfNPR1-mFc:hBNP complex): 37100 M⁻¹ s⁻¹ | t½ (mfNPR1-mFc:hBNP complex): 149 min | 100 nM Ag Bound (RU) (mNPR1-mFc [4]): 1 RU | binding result (mNPR1-mFc [4]): no binding (tested: 100 nM) | 100 nM Ag Bound (RU) (mNPR1-mFc [5]): 0 RU | binding result [6]: no binding (tested: ratio below 3 at 3.7 nM Ab)

Source: patent publication US20240309103A1 (Regeneron, published 2024)
